Test results from article PMC3710971 (Molecular Cell, 2013).

What was measured:
[1] = molecular target: HDAC1 (full-length, untagged) (UniProt Q13547 1-482); experiment: crystal structure
crystal structure = molecular target: the molecule itself; experiment: crystal structure

Sequence of HDAC1 (full-length, untagged) (Q13547 whole entry): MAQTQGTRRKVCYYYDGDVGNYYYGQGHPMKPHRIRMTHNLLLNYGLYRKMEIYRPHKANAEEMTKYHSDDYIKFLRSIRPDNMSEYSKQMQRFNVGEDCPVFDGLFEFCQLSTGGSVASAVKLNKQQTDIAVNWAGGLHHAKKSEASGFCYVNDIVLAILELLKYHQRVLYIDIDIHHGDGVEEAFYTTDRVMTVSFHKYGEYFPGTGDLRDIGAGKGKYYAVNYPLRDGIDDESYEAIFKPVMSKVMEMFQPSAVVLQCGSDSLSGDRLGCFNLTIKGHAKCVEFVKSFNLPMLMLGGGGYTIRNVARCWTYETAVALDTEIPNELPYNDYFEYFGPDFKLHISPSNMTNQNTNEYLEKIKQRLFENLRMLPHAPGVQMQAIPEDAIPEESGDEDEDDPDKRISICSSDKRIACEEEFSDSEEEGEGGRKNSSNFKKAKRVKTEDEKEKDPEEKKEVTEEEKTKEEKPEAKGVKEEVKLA

binding result [1]: binds
B1: ELM2-SANT domain of MTA1 (residues 162-335) (domain or fragment, UniProt Q13330 162-335, looked up)
chain: ADKGEIRVGNRYQADITDLLKEGEEDGRDQSRLETQVWEAHNPLTDKQIDQFLVVARSVGTFARALDCSSSVRQPSLHMSAAAASRDITLFHAMDTLHKNIYDISKAISALVPQGGPVLCRDEMEEWSASEANLFEEALEKYGKDFTDIQQDFLPWKSLTSIIEYYYMWKTTDR
binding result (crystal structure): binds
